# Experimental data: IntAct's records for PubMed 24528925
# B1: Ubiquitin-conjugating enzyme E2 Z (Homo sapiens), Q9H832 (parent)
# chain: MAESPTEEAATAGAGAAGPGASSVAGVVGVSGSGGGFGPPFLPDVWAAAAAAGGAGGPGSGLAPLPGLPPSAAAHGAALLSHWDPTLSSDWDGERTAPQCLLRIKRDIMSIYKEPPPGMFVVPDTVDMTKIHALITGPFDTPYEGGFFLFVFRCPPDYPIHPPRVKLMTTGNNTVRFNPNFYRNGKVCLSILGTWTGPAWSPAQSISSVLISIQSLMTENPYHNEPGFEQERHPGDSKNYNECIRHETIRVAVCDMMEGKCPCPEPLRGVMEKSFLEYYDFYEVACKDRLHLQGQTMQDPFGEKRGHFDYQSLLMRLGLIRQKVLERLHNENAEMDSDSSSSGTETDLHGSLRV
# Variants of: B1
# Settings: with ubd_human UBD
row,effect of a mutation on the interaction,Variant
1,decreasing interaction,MAESPTEEAATAGAGAAGPGASSVAGVVGVSGSGGGFGPPFLPDVWAAAAAAGGAGGPGSGLAPLPGLPPSAAAHGAALLSHWDPTLSSDWDGERTAPQCLLRIKRDIMSIYKEPPPGMFVVPDTVDMTKIHALITGPFDTPYEGGFFLFVFRCPPDYPIHPPRVKLMTTGNNTVRFNPNFYRNGKVCLSILGTWTGPAWSPAQSISSVLISIQSLMTENPYHNEPGFEQERHPGDSKNYNECIRHETIRVAVCDMMEGKCPCPEPLRGVMEKSFLEYYDFYEVACKDRLHLQGQTMQDPFGEKRGHFDYQSLLMRLGLIRQRVLERLHNENAEMDSDSSSSGTETDLHGSLRV [K323R]
